Experimental data: the nanobody polyreactivity screen of Harvey et al. (2022)

test: yeast display, Sf9 membrane polyspecificity reagent, FACS + sequencing; frameworks hold sequencing errors
Procedure, shortened: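 After 36–48 hours of galactose induction, yeast (Saccharomyces cerevisiae BJ5465) displaying a synthetic nanobody library were stained at 4 °C for 1 hour with 10% biotinylated, detergent-solubilized Sf9 membrane reagent. Streptavidin microbeads enriched the stained cells before FACS sorting into low and high (top ~1%) gates on anti-HA and streptavidin fluorescence. Each clone's polyreactivity label reflects its gate of origin.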

Sequence | polyreactivity (PSR sort gate)
QVQLVESGGGLVQAGGSLRLSCAASGSTFYKYAMGWYRQAPGKERELVAAITGSGGGTYYADSVKGRFTISRDNGKNTVYLQMNCLKPEDTAVYYCAARRVRSREAYDYWGQGTQVTVSS | high polyreactivity
QVQLVESGGGLVQAGGSLRLSCAASGSTPVYAMGWYRQAPGKERELVAAIRRRASSTYYADSVKGRFTISRDNAKNPVYLQMNSLKPEDTAVYYCAVGRVNGVLLGYWGQGTQVTVSS | high polyreactivity
QVQLVESGGGLVQAGGSLRLSCAASGSIFGLNAMGWYRQAPGKERELVAAISVSGTRTYYADSVKGRFTISRDNAKNTGYLQMNSLKPEDTAVYYCAAYSYSSSFGYRYDYWGQGTQVTVSS | high polyreactivity
QVQLVESGGGLVQAGGSLRLSCAASGRTFYEYTIGWYRQAPGKERELVAAITWSVGSTYYADSVKGRFTISRDIAKNTVYLQMNSLKPEETAVYDCAAYYYVWYYYWGQGTQVTVSS | low polyreactivity
QVQLVESGGGLVQAGGSLRLSCAASGSTFHRYAMGWSRQAPGKERELVAAISLSGGRTYYADSVKGRFTISRDNAKNTVYLQMNSLKPEDSAVYYCNALVPSGNGDHDYWGQGTQVTVSS | high polyreactivity
QVQLVESVGGLVQAGGSLRLSCSDSGSTFKSYAMGWYRQSPGKERELVAAITHRGSTYYADSVKGRFTISRDNAKNTVYVQMNSLKPEDTAVYYCNVRRIGNGRRVDYCGQGTQVTVSS | high polyreactivity
QVQLVESGGGLVQAGGSLRLSCAASGFTFTENVMGWYRQAPGKEREFVAAITYIGGRTYYADSVKGRFTISRDNAKNSVYLQMNSLKPEDTAVYYCAADWAYYVASYLYYTFDYWGQGTQVTVSS | low polyreactivity
QVQLVESGGGLVQAGGSLRLSCAASGFIFIQNDMGWYRQAPGKERAFFASISKDGGRTYYADSVKGRFTISRDNAKNTVYLQMNSLKPEDTAVYYCNTYPRGNWGNFVEQDYDYWGQGTQVTVSS | low polyreactivity
QVQLVESGGGLVQAGGSLRLSCAASGRIFIAYTMGWYRPAPGKERELVAAITWNGGSTYYADSVKGRFTISRDNAKNTVYLQMNSLKPEDTAVYYWVVVSRPGPKPAREMDYWGQGTQVTVSS | low polyreactivity
QVQLVESGGGLVQAGGSLRLSCAASGITFRHYDMGWYRQAPGKERELVAAITSRGGSTYYADSVKGRFTISRDNAKNTVYLQMNSLKPQDTAVYYCNKRLYYQRWPAAAREYWGQGTQVTVSS | high polyreactivity
QVQIVESGGGLVQAGGSLRLSCAASGSTFYYNTMGWYRQAPGKERELVAAISWRRVSTYYADSVKGRFTISRDIAKNTVYFQMNSLKPEDTAVYYCNAVHHYPEHIGGGYWGQGSQVTVSS | low polyreactivity
QVQLVESGGGLVQAGGSLRLSCAASGSTFVVNAMGWYSQAPGKERELVAAIDGSDGSTYYADSVKGRFTISRDNAKNTVYLQMNSLKPEDTAVYYCAAEVLGRPDVENDYWGQGTHVTVSS | low polyreactivity
QVQLVESGGGFVQAGGSLRLSCAAYGRTFGRYAMGWYRQAPGKERELVAAIRSGGSTYYADSVKGRFTISRDNAKNTVYLQMNSLKPEDTAVYYCAADIARHLTVFAYYRLDYWGQGTQVTVSS | low polyreactivity
QVQLVESGGGLVQAGGSLRLSCAASGRTFSYAMGWYRQAPGKERELVAGISWSGGRTYYADSVKGRFTISRDNAKNTVYLQMNSLKPEDTAVYYCAAGGRARTYYYWGQGTQVTVSS | high polyreactivity
QVQLVESGGGLVQAGGSLRLSCAASGITFKTNARGWYRQAPGKERELVAAINKRGGSTYYADSVKGRFTISRDNAKNTVYLQMNSLKPEDTAVYYCARRYGEKFGGQGTQVTVSS | high polyreactivity
QVQLVETVGGLVQAGGSLRLRCAASGSIFLYNAMGWYRQAPGKERELFAVINGRGGTYYADSVKGRFTISRDNAKNTVYLQINSLKPEDTAVYYCATGYTPSAWYDSVRFEDRDSWGQGTQVTVSS | low polyreactivity
QVQLVESGGGLVQAGGSLRLSCAASGRIFVRNAMGWYRQAPGKERELVAAITSGAGSTNYADSVKGRFTISRDNAKNTVYLQMNSLKPEDTAVYYCAADYETGAVSILDDYWGQGTQVTVSS | low polyreactivity
QVQLVESGVGLVQAGGSLSLSCAPSGSTFTSYAMGWYRQAPGKEMELVAAITSRRGTYYADSVKGRFTISRDNAKNTVYLEMTSLKPEVTAVYYCAARAPYKKYPYVKWYDYWGQGTQVTVSS | high polyreactivity
QVQLVESGGGLVQAGGSLRLSCAASGIICPENAMGWYRQAPGKERELVAAISKSGGRTYYADSVKGRFTISRDNAKNTVYLQMNSLKPEDTAVYYCAKVPYAYSRDRSAEDSWGQATQVTVSS | high polyreactivity
QVQLQESGGGQVQAGGSLRLSCAASGTISDSGLMGWYRQAPGKERELVAGISSGGITNYADSVKGRFTISRDNAKNTVYLQMNILKPEDTAVYWGQGTQVTVSI | low polyreactivity
QVQLVESGGGLVQAGGSLRLSCAASGNIFGFYTMGWYRQAPGKERELVAAIRSRGGSTNYADSVKGRFTISRDNAKNTVYLQMNSLKPEDTAVDYCAADPRYISYDYWGQGTQVTVSS | low polyreactivity

Sequence | polyreactivity (PSR sort gate)
QVQLVESGGGLVQAGGSLRLSCAASGLTFRRYAMGWYRPAPGKEREFVAAITHNGGRTYYADSVKGRFTISRDNAKNTVYLQMNSLKPEDTAVYYCNAGGQRVNYDYWGQGTQVTVSS | high polyreactivity
QVQLVESGGGLVQAGGSLRLSCAASGRTFRYNAMGWSRQAPGKERELVADITKSGGTTYYADSVKGRFTISRDNAKNTVYLQMNSLKPEDTAVYYCNAYRVVHPWEYDYWGQGTQVTVSS | high polyreactivity
QVQLVESGGGLVQAGGSLRLSCAASGITFVGNAMGWYRQAPGKERELVAGIRGNGGSTYYADSVKGRFTISRDNAKNTVYLQMNSLKPEDTAVYYCAAAAYYADFDYWGQGTQVTVSS | low polyreactivity
QVQHVESRGGLVQAGGSLRLSCAASGSTFDGNAMGWYRQAPGTETELVAGISYRGGSTYYADSVKGRFTISRDYAKNSVYLQMNRLKPEDTAVYYCAADDYVYWLFDYWGQGTQVTVSS | low polyreactivity
QVQLVESGGGLVQAGGSIRLSCAASGSTFDPYAMGWYRQAPGKEREVVAAISGSRGGSTNYADSVKGRFTISRDNAKNTVYLQMNSLKQEDTAVFYCNARFSYRNGHYYRYYYGGQGTQVTVSS | high polyreactivity
QVQLVESGGGLVQAGGTLRLSCAASGITFYLNAMGWYRQAPGKERELVADITVSGGSTYYAVSVKGRFTISRDNVKNTVYLQMNSLKPEDTAVYYCAAKYSSGRVLFEHGYWGQGTQVTVSS | low polyreactivity
QVQLVESGGGLVQAGGSLRLSCAASGRIFAYKAMGWYRQEPGKERELVAAISWSGSSTYYADSVKGRFTISRDNAKNTVYLQMNSLKPEDTAVYYCAATPWYYYSTSYAYYFWGQGTQVTVSS | high polyreactivity
QVQLQEIGGGLVQAGGSLRQSYAASGYIFPSLAMGWYRQAQGKEREFVAAIGRGSTNNYADSVKGRFTISRDNAKNTAYQQMNSLKPEDTAVYYCAVVQRSKRTYPWYDYWGQGTQVTVSS | low polyreactivity
QVQLVESGGGLVQAGGSLRLSCAASGRIFSQNAMGWYRQAPGKEREVVAVISRGGSTNYADSVKGRFTISRDNAKNTVYLQMNSLKPEDTAVYYCAADYAYIRSVWKWFIGDYWGQGTQVTVSS | low polyreactivity
QVQLVESGGGLVQAGGSLRLSCAASGSTFPPYAMGWYRQAPGKERELVAAITASGGRTYYADSVKGRFTLSRDNAKNTVYLQMNSLKPEDTAVYYCAALRGSTYDYWGQGTQVTVSS | high polyreactivity
QVQLVESGGGLVQAGGSLRLSCAASGINFAAYVMGWYRQAPGKERELFAAISKSGGRTYYADSVKGRFTISRDNAKNTVYLQMNSLKPEDTAVYYCAASYTYFSFGIGTDVRYGYWGQGTQVTVSS | high polyreactivity
QVQLVESGGGLVQAGGRLRLSCAASGSILVFYARGWYRQAPGKERELVAAITSGASTNYADSVKGRFTISRDNAKNTVYLQMNSLKPEDTAVYYCAAGFQTRTPLNEFDYWGQGTQVTVSS | low polyreactivity
QVQLVESGGGLVQAGGSLRLSSAASGSTSPRNAMGWYRQAPGKERELVAAISSGGRTNYADSVKGRFTISRDNAKNTVYFQMHSLKPEDTAVYYCAAVVHSTYWAQGTQVTVSS | low polyreactivity
QVQLVVSGGGLVQAGGSLRLSCAASGSMLYKYAMGWYRQPPGKEREFVAAISSSGGITYYADSVKGRFTISRDNAKNTVYLQMNSLKPEDTAVYYCAARTRSQFGHGYWGQGTQVTVSS | high polyreactivity
QGQLVESGGGLVQAGGSLRLSCADSGNTFNPNAMGWYRQAPGKERELVAVIRFRGVSKYYADSVKGRFTISRDNAKNSVYLQMNSLKPEDTAVYYCAADFLYYYLRYYFWGQGTQVTVSS | high polyreactivity
QVQLVESGGGLVQAGGSHRLSCAASGRIFKINAMGCYRQAPVKERELVAGISGSGSDTYYADSVKGRFTISRDNSKNTVYLQMNSLKPEDTAVYYCAATVVQYYDRDYWGQGTQVTVSS | low polyreactivity
QVQLVESGGGLVQAGGSLRLSCAASGRISRGYAMGWYRQAPGKERELVAAIDSDGDTNYADSVKGRFTISRDNAKNTVYLQMNRLKAEDTAVYYCNKDGAYKTAYKRWTLYDYWGQGTQVTVSS | low polyreactivity
QVQLVESGGGLVQAGGSLRLSCAASGFTFRVYAMGWYRQAPGKERELVAVISGTGGRTYYADSVKGRFTISRDNAKNTVYLQMNSLKPEDTAVYYCARRGRPPAIYDYWGQGTQVTVSS | high polyreactivity
QVQLVESGGGLVQAGGSLRLSCAASASIISYYAKGWYRQAPGKERELVAAISGSGSRTYYADSVKGRFTISRDNAKNTVYLQMNSLKPEDTAVYYCAARSLYRGFGYWGQGTQVTVSS | high polyreactivity
QVQLVESGGGLVQAGGSLSLSCAAYGRTFTYYAMGWYRPAPGKERELVAVISSGGRTYYADSVKGRFTISRDNAKITVSFQMNSLKPDDKGVYYCNAASPRYLVEYDFWGQGTQVTVSS | high polyreactivity
